Experimental data as given in article PMC3099244.

Target: TAP-tagged wild-type Dyn1-GFP (cytoplasmic dynein heavy chain) (S. cerevisiae) (UniProt P36022)
Assay: single-molecule stepwise photobleaching

TAP-tagged wild-type Dyn1-GFP (cytoplasmic dynein heavy chain), P36022 1-4092
stoichiometry N: 2
